Experimental data published in article PMC10881741, “Structural modifications toward improved lead-203/lead-212 peptide-based image-guided alpha-particle radiopharmaceutical therapies for neuroendocrine tumors” (European Journal of Nuclear Medicine and Molecular Imaging, 2023).
Read-outs that look alike come from different tables or passages of the source.

How the values were obtained:
[1] = In vivo biodistribution of ^203Pb-labeled peptides; design: species or system mice; conditions: female, athymic nu/nu, mouse, total radioactivity; for tissue uptake at 1 h / tissue uptake at 3 h / tissue uptake at 6 h / tissue uptake at 24 h: intravenous; for tissue to tissue ratio at 1 h / tissue to tissue ratio at 3 h / tissue to tissue ratio at 24 h: iv
Method: AR42J cells (5.0 × 10^6 cells/animal) were implanted subcutaneously on the left shoulder of female athymic nu/nu mice. […] Extra groups of mice were co-administered 37 kBq of ^203Pb-PSC-PEG2-TOC with DL-lysine (400 mg/kg) to determine the effect of amino acid on renal uptake of the radiopharmaceutical. Mice (n=3 per time point) were euthanized at 1, 3, and 24 h post-administration, and tumors and organs/tissues of interest were excised and weighed. The radioactivities of the samples were measured using the gamma counter.

[2] = system: AR42J xenografts; test: SPECT/CT imaging with blocking by unlabeled peptide; format: in vivo, mice; conditions: 11.1 MBq, 30 nmol unlabeled PSC-PEG2-TOC
Method: Serial SPECT/CT imaging was conducted at 3 h and 24 h post-administration. The imaging study was performed at the University of Iowa Small Animal Imaging Core using an INVEON trimodality SPECT/positron emission tomography (PET)/CT scanner (Siemens Preclinical, Knoxville, TN) equipped with medium-energy (0.3 mm) pinhole collimators. Data were reconstructed using three-dimensional ordered-subsets expectation maximization (OSEM-3D) algorithm with eight iterations and six subsets. Post-reconstruction images were smoothed with a 3D Gaussian kernel. Post-imaging biodistribution of the radiotracer in mice was obtained at 30 h post-administration.

[3] = system: AR42J cells; test: Cellular uptake of ^203Pb-labeled peptides; format: cell-based, rat; conditions: 2 h post-incubation
Method: PSCTOC and PSC-PEG2-TOC were labeled with ^203Pb and purified via HPLC for high molar activities as descibed in the Supplementary Material and in Li and collaborators. The HPLC-purified ^203Pb-labeled peptides (3.4 kBq) were incubated with AR42J cells in 24-well plates (pre-coated with poly-D-lysine), which were plated at a density of 2.0 × 10^5 cells 2 days prior, in the binding medium at 37 °C for up to 120 min. The cells were then washed twice and lysed, and the radioactivities of the samples were determined (n=3).

SMILES: C[C@@H](O)[C@@H]1NC(=O)[C@H](CCCCN)NC(=O)[C@@H](Cc2c[nH]c3ccccc23)NC(=O)[C@H](Cc2ccc(O)cc2)NC(=O)[C@@H](NC(=O)[C@@H](Cc2ccccc2)NC(=O)CCOCCOCCNC(=O)CN2CCN(CC(=O)O)CCN(CC(N)=O)CCN(CC(=O)O)CC2)CSSC[C@@H](C(=O)N[C@H](CO)[C@@H](C)O)NC1=O [[^203Pb]Pb-PSC-PEG2-TOC, metal not drawn]
- tissue uptake at 1 h ([1]; lung, 1 h, DL-lysine co-administered, read-out: Lung): 4.48 ± 4.47 %ID/g
- tissue uptake at 3 h ([1]; lung, 3 h (Blocking): 10 nmol unlabeled PSC-PEG2-TOC co-administered, read-out: Lung): 0.26 ± 0.03 %ID/g
- tissue uptake at 3 h ([1]; lung, 3 h, DL-lysine co-administered, read-out: Lung): 4.76 ± 3.19 %ID/g
- tissue uptake at 6 h ([1]; lung, DL-lysine co-administered, read-out: Lung): 5.6 ± 1.27 %ID/g
- tissue uptake at 24 h ([1]; lung, 24 h, DL-lysine co-administered, read-out: Lung): 1.11 ± 0.74 %ID/g
- tissue uptake at 1 h ([1]; muscle, 37 kBq, 1 h post-administration, read-out: Muscle): 0.29 ± 0.27 %ID/g
- tissue uptake at 3 h ([1]; muscle, 37 kBq, 3 h (No Lys), Table S4 study, read-out: Muscle): 0.17 ± 0.1 %ID/g
- tissue uptake at 3 h ([1]; muscle, 37 kBq, 3 h post-administration, read-out: Muscle): 0.03 ± 0.01 %ID/g
- tissue uptake at 24 h ([1]; muscle, 37 kBq, 24 h post-administration, read-out: Muscle): 0.02 ± 0.01 %ID/g
- tissue uptake at 1 h ([1]; muscle, 1 h, DL-lysine co-administered, read-out: Muscle): 0.48 ± 0.26 %ID/g
- tissue uptake at 3 h ([1]; muscle, 3 h (Blocking): 10 nmol unlabeled PSC-PEG2-TOC co-administered, read-out: Muscle): 0.06 ± 0.03 %ID/g
- tissue uptake at 3 h ([1]; muscle, 3 h, DL-lysine co-administered, read-out: Muscle): 0.03 ± 0.01 %ID/g
- tissue uptake at 6 h ([1]; muscle, DL-lysine co-administered, read-out: Muscle): 0.02 ± 0.02 %ID/g
- tissue uptake at 24 h ([1]; muscle, 24 h, DL-lysine co-administered, read-out: Muscle): 0.01 ± 0.01 %ID/g
- tissue uptake at 3 h ([1]; pancreas, 37 kBq, 3 h (No Lys), Table S4 study, read-out: Pancreas): 2.29 ± 1.63 %ID/g
- tissue uptake at 1 h ([1]; pancreas, 1 h, DL-lysine co-administered, read-out: Pancreas): 5.04 ± 1.33 %ID/g
- tissue uptake at 3 h ([1]; pancreas, 3 h (Blocking): 10 nmol unlabeled PSC-PEG2-TOC co-administered, read-out: Pancreas): 0.22 ± 0.04 %ID/g
- tissue uptake at 3 h ([1]; pancreas, 3 h, DL-lysine co-administered, read-out: Pancreas): 2.1 ± 0.68 %ID/g
- tissue uptake at 6 h ([1]; pancreas, DL-lysine co-administered, read-out: Pancreas): 0.75 ± 0.16 %ID/g
- tissue uptake at 24 h ([1]; pancreas, 24 h, DL-lysine co-administered, read-out: Pancreas): 0.33 ± 0.08 %ID/g
- tissue uptake at 1 h ([1]; small intestine, 37 kBq, 1 h post-administration, read-out: Small intestine): 1.34 ± 0.35 %ID/g
- tissue uptake at 3 h ([1]; small intestine, 37 kBq, 3 h (No Lys), Table S4 study, read-out: Small intestine): 0.6 ± 0.11 %ID/g
- tissue uptake at 3 h ([1]; small intestine, 37 kBq, 3 h post-administration, read-out: Small intestine): 1.85 ± 0.22 %ID/g
- tissue uptake at 24 h ([1]; small intestine, 37 kBq, 24 h post-administration, read-out: Small intestine): 0.17 ± 0.01 %ID/g
- tissue uptake at 1 h ([1]; small intestine, 1 h, DL-lysine co-administered, read-out: Small intestine): 1.9 ± 0.74 %ID/g
- tissue uptake at 3 h ([1]; small intestine, 3 h (Blocking): 10 nmol unlabeled PSC-PEG2-TOC co-administered, read-out: Small intestine): 0.81 ± 0.71 %ID/g
- tissue uptake at 3 h ([1]; small intestine, 3 h, DL-lysine co-administered, read-out: Small intestine): 2.37 ± 0.78 %ID/g
- tissue uptake at 6 h ([1]; small intestine, DL-lysine co-administered, read-out: Small intestine): 0.94 ± 0.32 %ID/g
- tissue uptake at 24 h ([1]; small intestine, 24 h, DL-lysine co-administered, read-out: Small intestine): 0.15 ± 0.02 %ID/g
- tissue uptake at 1 h ([1]; spleen, 37 kBq, 1 h post-administration, read-out: Spleen): 1.21 ± 0.17 %ID/g
- tissue uptake at 3 h ([1]; spleen, 37 kBq, 3 h (No Lys), Table S4 study, read-out: Spleen): 0.97 ± 0.47 %ID/g
- tissue uptake at 3 h ([1]; spleen, 37 kBq, 3 h post-administration, read-out: Spleen): 0.54 ± 0.29 %ID/g
- tissue uptake at 24 h ([1]; spleen, 37 kBq, 24 h post-administration, read-out: Spleen): 0.28 ± 0.07 %ID/g
- tissue uptake at 1 h ([1]; spleen, 1 h, DL-lysine co-administered, read-out: Spleen): 1.04 ± 0.4 %ID/g
- tissue uptake at 3 h ([1]; spleen, 3 h (Blocking): 10 nmol unlabeled PSC-PEG2-TOC co-administered, read-out: Spleen): 0.14 ± 0.07 %ID/g
- tissue uptake at 3 h ([1]; spleen, 3 h, DL-lysine co-administered, read-out: Spleen): 0.81 ± 0.3 %ID/g
- tissue uptake at 6 h ([1]; spleen, DL-lysine co-administered, read-out: Spleen): 0.73 ± 0.17 %ID/g
- tissue uptake at 24 h ([1]; spleen, 24 h, DL-lysine co-administered, read-out: Spleen): 0.41 ± 0.28 %ID/g
- tissue uptake at 3 h ([1]; stomach, 37 kBq, 3 h (No Lys), Table S4 study, read-out: Stomach): 0.95 ± 0.13 %ID/g
- tissue uptake at 1 h ([1]; stomach, 1 h, DL-lysine co-administered, read-out: Stomach): 1.46 ± 0.32 %ID/g
- tissue uptake at 3 h ([1]; stomach, 3 h (Blocking): 10 nmol unlabeled PSC-PEG2-TOC co-administered, read-out: Stomach): 0.36 ± 0.15 %ID/g
- tissue uptake at 3 h ([1]; stomach, 3 h, DL-lysine co-administered, read-out: Stomach): 2.36 ± 0.44 %ID/g
- tissue uptake at 6 h ([1]; stomach, DL-lysine co-administered, read-out: Stomach): 0.78 ± 0.2 %ID/g
- tissue uptake at 24 h ([1]; stomach, 24 h, DL-lysine co-administered, read-out: Stomach): 0.3 ± 0.12 %ID/g
- tissue uptake at 1 h ([1]; tumor, 37 kBq, 1 h post-administration, read-out: Tumor): 28.2 ± 8.63 %ID/g
- tissue uptake at 3 h ([1]; tumor, 37 kBq, 3 h (No Lys), Table S4 study, read-out: Tumor): 19.8 ± 1.61 %ID/g
- tissue uptake at 3 h ([1]; tumor, 37 kBq, 3 h post-administration, read-out: Tumor): 22.8 ± 2.8 %ID/g
- tissue uptake at 24 h ([1]; tumor, 37 kBq, 24 h post-administration, read-out: Tumor): 12.2 ± 3.81 %ID/g
- tissue uptake at 1 h ([1]; tumor, 1 h, DL-lysine co-administered, read-out: Tumor): 24.4 ± 1.85 %ID/g
- tissue uptake at 3 h ([1]; tumor, 3 h (Blocking): 10 nmol unlabeled PSC-PEG2-TOC co-administered, read-out: Tumor): 2.41 ± 0.46 %ID/g
- tissue uptake at 3 h ([1]; tumor, 3 h, DL-lysine co-administered, read-out: Tumor): 22.9 ± 1.09 %ID/g
- tissue uptake at 6 h ([1]; tumor, DL-lysine co-administered, read-out: Tumor): 18.9 ± 1.86 %ID/g
- tissue uptake at 24 h ([1]; tumor, 24 h, DL-lysine co-administered, read-out: Tumor): 7.44 ± 0.41 %ID/g
- tissue to tissue ratio at 1 h ([1]; tumor/blood, 37 kBq, 1 h post-administration, read-out: Tumor/blood ratio): 78.3
- tissue to tissue ratio at 3 h ([1]; tumor/blood, 37 kBq, 3 h post-administration, read-out: Tumor/blood ratio): 456
- tissue to tissue ratio at 24 h ([1]; tumor/blood, 37 kBq, 24 h post-administration, read-out: Tumor/blood ratio): 610
- tissue to tissue ratio at 1 h ([1]; tumor/kidneys, 37 kBq, 1 h post-administration, read-out: Tumor/kidneys ratio): 1.37
- tissue to tissue ratio at 3 h ([1]; tumor/kidneys, 37 kBq, 3 h post-administration, read-out: Tumor/kidneys ratio): 1.44
- tissue to tissue ratio at 24 h ([1]; tumor/kidneys, 37 kBq, 24 h post-administration, read-out: Tumor/kidneys ratio): 8.36
- tissue to tissue ratio at 1 h ([1]; tumor/liver, 37 kBq, 1 h post-administration, read-out: Tumor/liver ratio): 78.3
- tissue to tissue ratio at 3 h ([1]; tumor/liver, 37 kBq, 3 h post-administration, read-out: Tumor/liver ratio): 99.1
- tissue to tissue ratio at 24 h ([1]; tumor/liver, 37 kBq, 24 h post-administration, read-out: Tumor/liver ratio): 153
- tissue to tissue ratio at 1 h ([1]; tumor/lung, 37 kBq, 1 h post-administration, read-out: Tumor/lung ratio): 7.87
- tissue to tissue ratio at 3 h ([1]; tumor/lung, 37 kBq, 3 h post-administration, read-out: Tumor/lung ratio): 60
- tissue to tissue ratio at 24 h ([1]; tumor/lung, 37 kBq, 24 h post-administration, read-out: Tumor/lung ratio): 8.36
- tissue to tissue ratio at 1 h ([1]; tumor/muscle, 37 kBq, 1 h post-administration, read-out: Tumor/muscle ratio): 97.2
- tissue to tissue ratio at 3 h ([1]; tumor/muscle, 37 kBq, 3 h post-administration, read-out: Tumor/muscle ratio): 760
- tissue to tissue ratio at 24 h ([1]; tumor/muscle, 37 kBq, 24 h post-administration, read-out: Tumor/muscle ratio): 610
- Tumor uptake with co-administration of excessive unlabeled peptide [2]: almost completely blocked
- Cellular uptake, factor vs. [^203Pb]Pb-PSCTOC [3]: 4
- Cellular uptake, fold vs. [^203Pb]Pb-DOTATOC [3]: 21 fold
- Cellular uptake ([3]; 37 °C): 18%
